What all share (experiment): two-hybrid library CCNG1;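 further: natural log of median RNA to DNA barcode read ratio; higher means stronger binding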
The target of one assay is T1, 4H492-bA.
T1 chain: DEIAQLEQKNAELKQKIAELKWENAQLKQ

A further assay addresses T2, 4H348-bA.
T2 chain: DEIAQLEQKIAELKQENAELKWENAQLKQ

Another assay addresses T3, 4H2915-bA.
T3 chain: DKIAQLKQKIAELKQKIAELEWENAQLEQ

Another assay concerns the target T4, 4H2839-bA.
T4 chain: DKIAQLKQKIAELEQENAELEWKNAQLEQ

The next assay addresses T5, 4H741-bA.
T5 chain: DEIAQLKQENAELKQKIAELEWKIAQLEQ

The next assay has as its target T6, 4H40-bA.
T6 chain: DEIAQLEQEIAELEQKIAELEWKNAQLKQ

The target in another assay is T7, 4H3277-bA.
T7 chain: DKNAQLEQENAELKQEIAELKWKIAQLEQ

The next assay has as its target T8, 4H2692-bA.
T8 chain: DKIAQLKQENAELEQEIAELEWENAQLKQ

The next assay has as its target T9, 4H3057-bA.
T9 chain: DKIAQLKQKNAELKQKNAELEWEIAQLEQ

Another assay concerns the target T10, 4H319-bA.
T10 chain: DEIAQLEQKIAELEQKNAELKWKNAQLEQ

Another assay concerns the target T11, 4H2588-bA.
T11 chain: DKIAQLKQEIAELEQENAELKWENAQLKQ

The target of another assay is T12, 4H2717-bA.
T12 chain: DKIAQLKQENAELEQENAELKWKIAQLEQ

Another assay addresses T13, 4H477-bA.
T13 chain: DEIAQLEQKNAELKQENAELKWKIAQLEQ

The next assay deals with T14, P7A.
T14 chain: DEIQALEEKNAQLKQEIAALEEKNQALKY

The target of the next assay is T15, P8A.
T15 chain: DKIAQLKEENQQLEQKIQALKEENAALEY

In another assay the target is T16, P6A.
T16 chain: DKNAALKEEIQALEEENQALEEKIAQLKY

The next assay addresses T17, P9A.
T17 chain: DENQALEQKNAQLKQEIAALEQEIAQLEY

Another assay concerns the target T18, 4H3628-bA.
T18 chain: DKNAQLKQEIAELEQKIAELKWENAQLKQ

In a further assay the target is T19, 4H4001-bN.
T19 chain: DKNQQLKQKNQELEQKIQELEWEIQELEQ

The target in a further assay is T20, 4H591-bA.
T20 chain: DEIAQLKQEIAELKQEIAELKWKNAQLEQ

The target of the next assay is T21, 4H3298-bA.
T21 chain: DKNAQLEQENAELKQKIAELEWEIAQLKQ

The next assay deals with T22, 4H3462-bA.
T22 chain: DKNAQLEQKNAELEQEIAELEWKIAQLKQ

The target in another assay is T23, 4H3497-bA.
T23 chain: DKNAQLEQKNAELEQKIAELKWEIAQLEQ

The target in a further assay is T24, 4H3613-bA.
T24 chain: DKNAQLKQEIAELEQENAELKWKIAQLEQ

The next assay addresses T25, 4H3175-bA.
T25 chain: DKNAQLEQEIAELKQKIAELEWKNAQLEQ

The next assay has as its target T26, 4H3926-bA.
T26 chain: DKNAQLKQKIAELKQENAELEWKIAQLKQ

The target of the next assay is T27, 4H906-bA.
T27 chain: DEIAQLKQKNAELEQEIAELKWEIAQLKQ

Another assay has as its target T28, 4H626-bA.
T28 chain: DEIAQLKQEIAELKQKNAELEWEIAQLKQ

In the next assay the target is T29, 4H3010-bN.
T29 chain: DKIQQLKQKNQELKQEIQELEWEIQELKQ

A further assay has as its target T30, 4H3926-bN.
T30 chain: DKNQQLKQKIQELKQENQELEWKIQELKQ

The target of another assay is T31, 4H968-bN.
T31 chain: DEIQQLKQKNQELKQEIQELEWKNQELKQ

Another assay deals with T32, 4H797-bN.
T32 chain: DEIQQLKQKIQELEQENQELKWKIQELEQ

For a further assay, the target named is T33, 4H2673-bN.
T33 chain: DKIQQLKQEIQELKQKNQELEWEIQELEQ

Another assay concerns the target T34, 4H918-bN.
T34 chain: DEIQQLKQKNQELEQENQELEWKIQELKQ

Another assay has as its target T35, 4H3381-bH.
T35 chain: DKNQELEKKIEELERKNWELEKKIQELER

The next assay deals with T36, 4H4073-bN.
T36 chain: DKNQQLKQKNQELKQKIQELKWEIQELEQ

For another assay, the target named is T37, 4H683-bN.
T37 chain: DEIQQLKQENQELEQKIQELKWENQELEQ

Another assay deals with T38, 4H575-bN.
T38 chain: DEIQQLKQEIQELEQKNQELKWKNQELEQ

Another assay has as its target T39, 4H457-bN.
T39 chain: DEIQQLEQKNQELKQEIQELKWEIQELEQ

For a further assay, the target named is T40, 4H754-bN.
T40 chain: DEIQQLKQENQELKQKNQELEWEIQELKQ

The next assay addresses T41, 4H3427-bN.
T41 chain: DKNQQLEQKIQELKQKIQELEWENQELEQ

In a further assay the target is T42, 4H346-bN.
T42 chain: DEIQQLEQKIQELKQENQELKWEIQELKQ

The next assay addresses T43, 4H855-bN.
T43 chain: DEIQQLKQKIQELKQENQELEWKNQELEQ

For the next assay, the target named is T44, 4H780-bN.
T44 chain: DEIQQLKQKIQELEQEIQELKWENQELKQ

The target of another assay is T45, 4H2702-bN.
T45 chain: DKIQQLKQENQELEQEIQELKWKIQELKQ

Another assay concerns the target T46, 4H3112-bN.
T46 chain: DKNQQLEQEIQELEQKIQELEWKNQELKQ

The target of another assay is T47, 4H953-bN.
T47 chain: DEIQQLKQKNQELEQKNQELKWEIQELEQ

The target in a further assay is T48, 4H3057-bN.
T48 chain: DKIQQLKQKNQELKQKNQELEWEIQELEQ

Another assay has as its target T49, 4H3843-bN.
T49 chain: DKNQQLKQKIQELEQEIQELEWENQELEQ

A further assay addresses T50, 4H883-bN.
T50 chain: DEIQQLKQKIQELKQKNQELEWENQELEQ

The target of the next assay is T51, 4H3782-bN.
T51 chain: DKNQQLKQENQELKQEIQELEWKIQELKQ

The next assay addresses T52, 4H568-bN.
T52 chain: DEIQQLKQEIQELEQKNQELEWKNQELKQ

The next assay has as its target T53, 4H72-bN.
T53 chain: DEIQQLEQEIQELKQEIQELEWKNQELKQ

For a further assay, the target named is T54, P5bHq.
T54 chain: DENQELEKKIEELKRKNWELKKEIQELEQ

Another assay has as its target T55, 4H3189-bN.
T55 chain: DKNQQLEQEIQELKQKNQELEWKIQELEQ

The target in another assay is T56, 4H462-bN.
T56 chain: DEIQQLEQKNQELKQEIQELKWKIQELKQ

A further assay concerns the target T57, 4H370-bN.
T57 chain: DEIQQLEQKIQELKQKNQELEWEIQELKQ

For a further assay, the target named is T58, 4H3606-bN.
T58 chain: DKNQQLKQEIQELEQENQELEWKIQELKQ

A further assay deals with T59, 4H967-bN.
T59 chain: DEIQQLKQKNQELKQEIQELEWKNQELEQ

In the next assay the target is T60, 4H607-bN.
T60 chain: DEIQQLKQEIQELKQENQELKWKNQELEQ

In another assay the target is T61, 4H687-bN.
T61 chain: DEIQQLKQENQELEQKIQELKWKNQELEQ

A further assay deals with T62, 4H331-bN.
T62 chain: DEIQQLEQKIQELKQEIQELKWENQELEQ

For a further assay, the target named is T63, P9bHq.
T63 chain: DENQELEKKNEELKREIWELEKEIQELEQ

The next assay deals with T64, P7bHq.
T64 chain: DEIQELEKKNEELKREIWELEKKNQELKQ

The target in another assay is T65, P6bHq.
T65 chain: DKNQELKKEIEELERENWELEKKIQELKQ

In a further assay the target is T66, P8bHq.
T66 chain: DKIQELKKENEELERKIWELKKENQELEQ

In the case of DKIAQLKQEIAELEQENAELKWENAQLKQ [4H2588-bA], the interaction score in the assay with 4H492-bA is 0.34; in the assay with 4H348-bA, 1.27; with 4H2915-bA it was 0.571; with 4H2839-bA, 0.846; in the assay with 4H741-bA it was -0.854; with 4H40-bA, -1.21. Also, the interaction score was -0.938 in the assay with 4H3277-bA; -0.738 with 4H2692-bA; -0.114 with 4H3057-bA; 0.789 with 4H319-bA; 1.71 with 4H2588-bA; 0.0896 with 4H2717-bA. In the assay with 4H477-bA, the interaction score was -1.19.

Consider DKNAALKEEIQALEEENQALEEKIAQLKY [P6A], for which the interaction score with P7A is -0.197; in the assay with P8A, -0.152; with P6A it was -0.792; with P9A, -0.171.

With DKNAQLEQEIAELKQKIAELEWKNAQLEQ [4H3175-bA], the interaction score was -0.531 with 4H3628-bA; -0.717 in the assay with 4H3277-bA; -0.893 with 4H4001-bN; -1.55 with 4H591-bA; -0.491 in the assay with 4H3298-bA; -0.259 in the assay with 4H3462-bA. Also, the interaction score was 0 in the assay with 4H3497-bA; -0.277 in the assay with 4H3613-bA; 0.672 in the assay with 4H3175-bA; -0.662 with 4H3926-bA; -1.09 with 4H906-bA; -2 with 4H626-bA.

Turning to DKIQQLKQEIQELKQKNQELEWEIQELEQ [4H2673-bN], the interaction score with 4H3010-bN was 1.39; with 4H3926-bN, -0.806; with 4H968-bN it was -0.538; with 4H797-bN it was -0.839; with 4H2673-bN, 0.657; with 4H918-bN, -1.57. Further, the interaction score was -0.468 in the assay with 4H3381-bH; -1.63 in the assay with 4H4073-bN; -0.954 with 4H683-bN; -1.53 with 4H575-bN; -1.88 in the assay with 4H457-bN; -1.07 with 4H754-bN. Moreover, the interaction score was -1.55 with 4H3427-bN; -0.543 in the assay with 4H346-bN; -1.2 with 4H855-bN; -1.43 in the assay with 4H780-bN; -0.755 with 4H2702-bN; -0.658 with 4H3112-bN. Moreover, the values for the interaction score with 4H953-bN and with 4H3057-bN were -1.21 and -0.47, respectively.

Regarding DKNQQLEQEIQELKQKNQELEWKIQELEQ [4H3189-bN], the interaction score is -1.81 with 4H3843-bN; -1.58 with 4H4001-bN; -1.35 in the assay with 4H883-bN; -1.38 with 4H3782-bN; -0.877 in the assay with 4H568-bN; -0.933 with 4H797-bN. Besides, the interaction score in the assay with 4H918-bN was -0.805; with 4H72-bN, -0.483; with P5bHq, -2.13; with 4H3189-bN it was -1.1; with 4H462-bN it was -0.731; in the assay with 4H370-bN, -1.02. The interaction score was -0.893 with 4H3606-bN; -1.41 with 4H967-bN; -2.38 with 4H607-bN; -1.88 with 4H953-bN; -0.938 in the assay with 4H687-bN; -1.93 with 4H331-bN.

In the case of DENQELEKKIEELKRKNWELKKEIQELEQ [P5bHq], the interaction score in the assay with P9bHq was -0.517; with P7bHq, -0.58; in the assay with P5bHq it was -1.33; with P6bHq, 0.519; with P8bHq it was 0.944.

The values above are taken from PMC10397247.
